According to doi:10.1101/2022.01.05.474964 (bioRxiv, 2022):

Target: the molecule itself
Assay: SEC-MALS

B1: full-length human BicD2 isoform 2 (natural protein, UniProt Q8TD16-2 1-855, looked up)
chain: MSAPSEEEEYARLVMEAQPEWLRAEVKRLSHELAETTREKIQAAEYGLAVLEEKHQLKLQFEELEVDYEAIRSEMEQLKEAFGQAHTNHKKVAADGESREESLIQESASKEQYYVRKVLELQTELKQLRNVLTNTQSENERLASVAQELKEINQNVEIQRGRLRDDIKEYKFREARLLQDYSELEEENISLQKQVSVLRQNQVEFEGLKHEIKRLEEETEYLNSQLEDAIRLKEISERQLEEALETLKTEREQKNSLRKELSHYMSINDSFYTSHLHVSLDGLKFSDDAAEPNNDAEALVNGFEHGGLAKLPLDNKTSTPKKEGLAPPSPSLVSDLLSELNISEIQKLKQQLMQMEREKAGLLATLQDTQKQLEHTRGSLSEQQEKVTRLTENLSALRRLQASKERQTALDNEKDRDSHEDGDYYEVDINGPEILACKYHVAVAEAGELREQLKALRSTHEAREAQHAEEKGRYEAEGQALTEKVSLLEKASRQDRELLARLEKELKKVSDVAGETQGSLSVAQDELVTFSEELANLYHHVCMCNNETPNRVMLDYYREGQGGAGRTSPGGRTSPEARGRRSPILLPKGLLAPEAGRADGGTGDSSPSPGSSLPSPLSDPRREPMNIYNLIAIIRDQIKHLQAAVDRTTELSRQRIASQELGPAVDKDKEALMEEILKLKSLLSTKREQITTLRTVLKANKQTAEVALANLKSKYENEKAMVTETMMKLRNELKALKEDAATFSSLRAMFATRCDEYITQLDEMQRQLAAAEDEKKTLNSLLRMAIQQKLALTQRLELLELDHEQTRRGRAKAAPKTKPATPSVSHTCACASDRAEGTGLANQVFCSEKHSIYCD
stoichiometry N: 2
